B1: WalK-LgBIT (native WalK) [S. aureus] / WalR-SmBIT (native WalR) [S. aureus] (parent)
chain 1: MARKVVVVDDEKPIADILEFNLKKEGYDVYCAYDGNDAVDLIYEEEPDIVLLDIMLPGRDGMEVCREVRKKYEMPIIMLTAKDSEIDKVLGLELGADDYVTKPFSTRELIARVKANLRRHYSQPAQDTGNVTNEITIKDIVIYPDAYSIKKRGEDIELTHREFELFHYLSKHMGQVMTREHLLQTVWGYDYFGDVRTVDVTIRRLREKIEDDPSHPEYIVTRRGVGYFLQQHE
chain 2: MKWLKQLQSLHTKLVIVYVLLIIIGMQIIGLYFTNNLEKELLDNFKKNITQYAKQLEISIEKVYDEKGSVNAQKDIQNLLSEYANRQEIGEIRFIDKDQIIIATTKQSNRSLINQKANDSSVQKALSLGQSNDHLILKDYGGGKDRVWVYNIPVKVDKKVIGNIYIESKINDVYNQLNNINQIFIVGTAISLLITVILGFFIARTITKPITDMRNQTVEMSRGNYTQRVKIYGNDEIGELALAFNNLSKRVQEAQANTESEKRRLDSVITHMSDGIIATDRRGRIRIVNDMALKMLGMAKEDIIGYYMLSVLSLEDEFKLEEIQENNDSFLLDLNEEEGLIARVNFSTIVQETGFVTGYIAVLHDVTEQQQVERERREFVANVSHELRTPLTSMNSYIEALEEGAWKDEELAPQFLSVTREETERMIRLVNDLLQLSKMDNESDQINKEIIDFNMFINKIINRHEMSAKDTTFIRDIPKKTIFTEFDPDKMTQVFDNVITNAMKYSRGDKRVEFHVKQNPLYNRMTIRIKDNGIGIPINKVDKIFDRFYRVDKARTRKMGGTGLGLAISKEIVEAHNGRIWANSVEGQGTSIFITLPCEVIEDGDWDE

Variants of B1 are the subject of one test. In words: split luciferase (SmBIT/LgBIT) interaction assay in S. aureus. The settings on record: with WalR-SmBIT (native WalR) [S. aureus]; maximum of the RLU curve, mutant peak at about 125 min, Wt peak at about 120 min; growth in LB in NRS384 Wt; sub-panel labelled T389A; parent: 8e+03; read off a plot.
chain 2 T389A: the response worked out at 60000 RLU.

Still in this test, the particulars now being: with WalR-SmBIT (native WalR) [S. aureus]; maximum of the RLU curve, mutant peak at about 165 min, Wt peak at about 120 min; growth in LB in NRS384 Wt; sub-panel labelled G223D; parent: 8e+03; read off a plot.
On to chain 2 G223D, for which the response was 19000 RLU.

The test is the same for the next values; noted with them: with WalK-LgBIT (native WalK) [S. aureus]; maximum of the RLU curve, mutant peak at about 140 min, Wt peak at about 125 min; growth in LB in NRS384 Wt; sub-panel labelled D53A; parent: 8.5e+03; read off a plot.
Take chain 1 MARKVVVVDDEKPIADILEFNLKKEGYDVYCAYDGNDAVDLIYEEEPDIVLLAIMLPGRDGMEVCREVRKKYEMPIIMLTAKDSEIDKVLGLELGADDYVTKPFSTRELIARVKANLRRHYSQPAQDTGNVTNEITIKDIVIYPDAYSIKKRGEDIELTHREFELFHYLSKHMGQVMTREHLLQTVWGYDYFGDVRTVDVTIRRLREKIEDDPSHPEYIVTRRGVGYFLQQHE [chain 1 D53A]: the response amounted to 17000 RLU.

The same test, now with this note: with WalK-LgBIT (native WalK) [S. aureus]; maximum of the RLU curve, mutant peak at about 140 min, Wt peak at about 125 min; growth in LB in NRS384 Wt; sub-panel labelled D53E; parent: 8e+03; read off a plot.
Consider chain 1 MARKVVVVDDEKPIADILEFNLKKEGYDVYCAYDGNDAVDLIYEEEPDIVLLEIMLPGRDGMEVCREVRKKYEMPIIMLTAKDSEIDKVLGLELGADDYVTKPFSTRELIARVKANLRRHYSQPAQDTGNVTNEITIKDIVIYPDAYSIKKRGEDIELTHREFELFHYLSKHMGQVMTREHLLQTVWGYDYFGDVRTVDVTIRRLREKIEDDPSHPEYIVTRRGVGYFLQQHE [chain 1 D53E], for which the response is 150000 RLU.

Still in this test, the particulars now being: with WalK-LgBIT (native WalK) [S. aureus]; maximum of the RLU curve, mutant peak at about 170 min, Wt peak at about 120 min; growth in LB in NRS384 Wt; sub-panel labelled D53A/T101A; parent: 8e+03; read off a plot.
chain 1 MARKVVVVDDEKPIADILEFNLKKEGYDVYCAYDGNDAVDLIYEEEPDIVLLAIMLPGRDGMEVCREVRKKYEMPIIMLTAKDSEIDKVLGLELGADDYVAKPFSTRELIARVKANLRRHYSQPAQDTGNVTNEITIKDIVIYPDAYSIKKRGEDIELTHREFELFHYLSKHMGQVMTREHLLQTVWGYDYFGDVRTVDVTIRRLREKIEDDPSHPEYIVTRRGVGYFLQQHE [chain 1 D53A T101A]: the response was found to be 8000 RLU.

The same test, now with this note: with WalR-SmBIT (native WalR) [S. aureus]; maximum of the RLU curve, mutant peak at about 110 min, Wt peak at about 130 min; growth in LB in NRS384 Wt; sub-panel labelled Y32C; parent: 1.8e+04; read off a plot.
Regarding chain 2 Y32C, the response came to 55000 RLU.

Staying with this test, now noted: with WalR-SmBIT (native WalR) [S. aureus]; maximum of the RLU curve, mutant peak at about 170 min, Wt peak at about 120 min; growth in LB in NRS384 Wt; sub-panel labelled H385A; parent: 8e+03; read off a plot.
Consider chain 2 H385A, for which the response worked out at 20000 RLU.

Source of the values: PMC10746227.
